{
  "source": "paper PMC6086383",
  "substrate": "CC(=O)SCC[N+](C)(C)C",
  "assay": "Steady state kinetics of substrate hydrolysis, HuBChE",
  "format": "biochemical, human",
  "settings": "other: HuBChE, equation 1, 50 mM sodium phosphate pH 8.0, 22 °C",
  "data": [
    {"protein": "HuBChE (Homo sapiens) (protein) EDDIIIATKNGKVRGMNLTVFGGTVTAFLGIPYAQPPLGRLRFKKPQSLTKWSDIWNATKYANSCCQNIDQSFPGFHGSEMWNPNTDLSEDCLYLNVWIPAPKPKNATVLIWIYGGGFQTGTSSLHVYDGKFLARVERVIVVSMNYRVGALGFLALPGNPEAPGNMGLFDQQLALQWVQKNIAAFGGNPKSVTLFGESAGAASVSLHLLSPGSHSLFTRAILQSGSFNAPWAVTSLYEARNRTLNLAKLTGCSRENETEIIKCLRNKDPQEILLNEAFVVPYGTPLSVNFGPTVDGDFLTDMPDILLELGQFKKTQILVGVNKDEGTAFLVYGAPGFSKDNNSIITRKEFQEGLKIFFPGVSEFGKESILFHYTDWVDDQRPENYREALGDVVGDYNFICPALEFTKKFSEWGNNAFFYYFEHRSSKLPWPEWMGVMHGYEIEFVFGLPLERRDNYTKAEEILSRSIVKRWANFAKYGNPNETQNNSTSWPVFKSTEQKYLTLNTESTRIMTKLRAQQCRFWTSFFPKVLEMTGNIDEAEWEWKAGFHRWNNYMMDWKNQFNDYTSKKESCVGL", "values": [
      {"measurement": "Km", "result": "31 ± 4", "unit": "µM"},
      {"measurement": "kcat", "result": "23±2 x10^3 min^−1"},
      {"measurement": "kcat/Km", "result": "697±14 ×10^3 min^−1 mM^−1"}
    ]}
  ]
}
